Assay results: the DeepSol protein solubility set

Experiment: soluble on expression in E. coli; label from the status in PepcDB or PDB records

Sequence | soluble on expression in E. coli
MGHHHHHHSHMASRWQNMGTSVRRRSLQHQEQLEDSKELQPVVSHQETSVGALGSLCRQFQRRLPLRAVNLNLRAGPSWKRLETPEPGQQGLQAAARSAKSALGAVSQRIQESCQSGTKWLVETQVKARRRKRGAQKGSGSPTHSLSQKSTRLSGAAPAHSAADPWEKEHHRLSVRMGSHAHPLRRSRREAAFRSPYSSTEPLCSPSESDSDLEPVGAGIQHLQKLSQELDEAIMAEERKQALSDRQGFILKDVYASP | not soluble
MGHHHHHHSHMATSRYEPVAEIGVGAYGTVYKARDPHSGHFVALKSVRVPNGGGGGGGLPISTVREVALLRRLEAFEHPNVVRLMDVCATSRTDREIKVTLVFEHVDQDLRTYLDKAPPPGLPAETIKDLMRQFLRGLDFLHANCIVHRDLKPENILVTSGGTVKLADFGLARIYSYQMALTPVVVTLWYRAPEVLLQSTYATPVDMWSVGCIFAEMFRRKPLFCGNSEADQLGKIFDLIGLPPEDDWPRDVSLPRGAFPPRGPRPVQSVVPEMEESGAQLLLEMLTFNPHKRISAFRALQHSYLHKDEGNPE | not soluble
MGHHHHHHSHMAVVRATSADVDLMARLLRAEAEGEGKQGMLLVGNVGINRLRANCSDFKGLRTIRQMIYQPHAFEAVTHGYFYQRARDSERALARGSINGERRWPAKFSLWYFRPQGDCPAQWYNQPFVARFKSHCFYQPTAETCENVYNTF | not soluble
MGHHHHHHSHMAVWIQAQQLQGEALHQMQALYGQHFPIEVRHYLSQWIESQAWDSVDLDNPQENIKATQLLEGLVQELQKKAEHQVGEDGFLLKIKLGHYATQLQNTYDRCPMELVRCIRHILYNEQRLVREANNGSSP | not soluble
MGHHHHHHSHMDPDTFTFNFNNDPLVLRRRQTYLCYEVERLDNGWMVLMDQHMGFLCNEAKNLLCGFYGRHADWRFLDLVPSLQLDPAQIYRVTWFISWSPCFSWGCAGEVRAFLQENTHVRLPIFAARIYDYDPLYKEALQMLRDAGAQVSIMTYDEFEYCWDTFVYRQGCPFQPWDGLEEHSQALSGRLRAILQNQGN | not soluble
MGHHHHHHSHMDRWSAGTLENSILNAYLHTIRGSQHFLYIENQFFISCSDGRTVLNKVGDEIVDRILKAHKQGWCYRVYVLLPLLPGFEGDISTGGGNSIQAILHFTYRTLCRGEYSILHRLKAAMGTAWRDYISICGLRTHGE | soluble
MGHHHHHHSHMELKQSLSTHLEAEKPLRRYGAVEETAWKTERLGRNQLDIISMAETTMMPEEIELEMAKIQRLREVLVRRESELRFMMDDIQLCKDIMDLKQELQNLVAIPEKEKTKLQKQREDELIQKIHKLVQKRDFLVDDAEVERLREQEEDKEMADFLRIKLKPLDKVTKSPASSRAEKKAEPPPSKPTVAKTGLALIKDCCGATQCNIM | soluble
MGHHHHHHSHMETLSNASGTFAIRLLKILCQDNPSHNVFCSPVSISSALAMVLLGAKGNTATQMAQALSLNTEEDIHRAFQSLLTEVNKAGTQYLLRTANRLFGEKTCQFLSTFKESCLQFYHAELKELSFIRAAEESRKHINTWVSKKTEGKIEELLPGSSIDAETRLVLVNAIYFKGKWNEPFDETYTREMPFKINQEEQRPVQMMYQEATFKLAHVGEVRAQLLELPYARKELSLLVLLPDDGVELSTVEKSLTFEKLTAWTKPDCMKSTEVEVLLPKFKLQEDYDMESVLRHLGIVDAFQQGKADLSAMSAERDLCLSKFVHKSFVEVNEEGTEAAAASSCFVVAECCMESGPRFCADHPFLFFIRHNRANSILFCGRFSSP | not soluble
MGHHHHHHSHMGKQKKTRKYATMKRMLSLRDQRLKEKDRLKPKKKEKKDPSALKEREVPQHPSCLFFQYNTQLGPPYHILVDTNFINFSIKAKLDLVQSMMDCLYAKCIPCITDCVMAEIEKLGQKYRVALRIAKDPRFERLPCTHKGTYADDCLVQRVTQHKCYIVATVDRDLKRRIRKIPGVPIMYISNHRYNIERMPDDYGAPRF | not soluble
MGHHHHHHSHMGKWHVGGRRGSPRQWGATARGRDLEAVRRGGCGSVGRRRQRRRRRRRRMRRMRRMWATQGLAVRVALSVLPGSRALRPGDCEVCISYLGRFYQDLKDRDVTFSPATIENELIKFCREARGKENRLCYYIGATDDAATKIINEVSKPLAHHIPVEKICEKLKKKDSQICELKYDKQIDLSTVDLKKLRVKELKKILDDWGETCKGCAEKSDYIRKINELMPKYAPKAASAPTDL | not soluble
MGHHHHHHSHMIHIVQAKDKGQTARATKFLALDKCLPHRDFLQILEIEHDPSAPDYLEYDIEWLTILRATDDLINVTGRLWNMPESNGLHARWDYSATEEGMKEVLEKLNHDLKVPCNFSVTAACYDPSKPQTQMQLIHRINPQTTEFCAQLGIIDINVRLQKSKEEHHVCGEYEEQDDVESNDSGEDQSEYNTDTSALSSINPDEIMLDEEEDEDSIVSAHSGMNTPSVEPSDQASEFSASFSDVRILPGSMIVSSDDTVDSTIDREGKPGGTVESGNGEDLTKVPLKRLSDEHEPEQRKKIKRRNQAIYAAVDDDDDDAA | not soluble
MGHHHHHHSHMIQYIPQRPPIVMISTLVSAEKNVTETELEIPAHGLFVKDGVLHEPGLIENVAQTAAAGVGYACTLTSQPVPVGFIGAVKNLEIDYLPKVGDVLETRVEVLEEIFDMTLIKGESFVKGKRVLTCEMKIVLKK | not soluble
MGHHHHHHSHMISSNIREARTVILPRLMLEITSNGTLTVASHTPIFQKLSLLDLPSLTAHLKTKLSGSMFKGFLFATLCETEDHVTTLDMHPHVFEKRLVLYNPRNTCNKELCALISMVENLMDCDPKLPLSIYMRGKRLFQKNPGKDSCFLFKGLSTLISTHFAVYHPNFTVNDELLLPPLLAYKMHSTIEGIDEVSKGLLKAIYLDSYRMDNNIDDFQNPAGTFTLLCLPTIFTKHLTVPNVLILIKRAGLMYEAIDNIIL | not soluble
MGHHHHHHSHMKMEHQNKRSPLHAAAEAGHVDICHMLVQAGANIDTCSEDQRTPLMEAAENNHLEAVKYLIKAGALVDPKDAEGSTCLHLAAKKGHYEVVQYLLSNGQMDVNCQDDGGWTPMIWATEYKHVDLVKLLLSKGSDINIRDNEENICLHWAAFSGCVDIAEILLAAKCDLHAVNIHGDSPLHIAARENRYDCVVLFLSRDSDVTLKNKEGETPLQCASLNSQV | not soluble
MGHHHHHHSHMLALATSIHQSQLDRERILSLEQRVVELQQTLAQKDQALGKLEQSLRLMEEASFDGTFLWKITNVTRRCHESACGRTVSLFSPAFYTAKYGYKLCLRLYLNGDGTGKRTHLSLFIVIMRGEYDALLPWPFRNKVTFMLLDQNNREHAIDAFRPDLSSASFQRPQSETNVASGCPLFFPLSKLQSPKHAYVKDDTMFLKCIVETST | not soluble
MGHHHHHHSHMLENRDYTLIIDKSGSMATPDQKGGRNRWVTAQESTLALASKCEQFDPDGITLYVFSGRFKRYENVTSAKVNQIFQENDPSGTTDLAAVLKHATDDYFQRKGAGKTKPNGETILVVTDGEPDDRKAVMRVIIEASRRMDKDEELAISFIQVGSDAQATRFLKVLDDELQGAGAKFDICDTVTMEDMEDLSLSEVLLNAITD | soluble
MGHHHHHHSHMLWECKQLGAHSPSTLLTTLMFFNTKYFLLKTVDQHMKLAFSKVLRQTKKNPSNPKDKSTSIRYLKALGIHQTGQKVTDDMYAEQTENPENPLRCPIKLYDFYLFKCPQSVKGRNDTFYLTPEPVVAPNSPIWYSVQPISREQMGQMLTRILVIREIQEAIAVANASTMH | not soluble
MGHHHHHHSHMNFAGKHVGFGLTGSHCTYHEVLPQMERLVELGAKVTPFVTHTVQTTDTKFGESSEWINKIKQITEEPIVDSMVKAEPFGPKTPLDCMVIAPMTGNSTSKFANAMTDSPVLMGAKATLRNGKPVVVGISTNDALGLNGINIMRLMATKNIYFIPFGQDNPQVKPNSLVARMEALPETIEAALRGQQYQPVLIEKFRD | soluble
MGHHHHHHSHMNIFIMRHGEAEVMANSDKARHLTVYGSKQAFLQGQWLKQHLSTLVINSLDRILVSPYVRAQETFHQVNQAFDLELENKFEIWEGITPYGHAHSVIDYLEVLKDEGVKSVLIVSHLPLVGEIVAELYGKRNPISFYPATIAQLLWDGNKSEILMHQASPVIYLK | not soluble
